Experimental data published in patent US20110239327A1, “Nematicidal Effects of Cysteine Proteinases and Methods of Use Thereof to Treat Nematode Infestation” (priority 2007, published 2011).

Tests used:
[1] = system: Meloidogyne spp. J2s; test: Light microscopy and SEM of cuticle damage of Meloidogyne spp. J2s; format: cell-based, M. incognita or M. javanica
Method: Approximately 1000 J2s (second juvenile stage) of M. incognita or M. javanica were incubated per well of a 48-well plate with the following active enzyme concentrations (determined by E-64 titration) of papain dissolved in distilled water containing 16 mM L-cysteine (to activate the cysteine proteinase): 1.5 μM, 3 μM, 6.25 μM, 12.5 μM, 25 μM, 50 μM, 75 μM and 100 μM. Control wells contained J2s and distilled water with and without 16 mM L-cysteine, or J2s and 1 mM E-64, with and without 50 μM (active enzyme) papain, which had been preincubated for 25 mins at 40° C. Each enzyme concentration and the controls were set up in duplicate (n=2) or triplicate (n=3). The number of active J2s per well was counted prior to the addition of papain, and then the J2s were incubated in the dark at room temperature for 3 h. The number of mobile J2s per well was counted after 60, 120 and 180 mins. The nematode surfaces were examined for signs of damage using a light microscope (Zeiss Axioskop) at ×20, ×40 and ×100 magnification and photographs were taken with a Xillix Microimager. The same procedure was followed when setting up further experiments to compare the effects of 25 μM papain, 25 μM crude papaya latex (0.625 g/ml), 25 μM stem bromelain (0.18 g/ml) and 25 μM actinidin (active enzyme concentrations) with M. incognita, M. javanica or G. rostochiensis.
The effects on the J2 cuticle were more closely examined by scanning electron microscopy (SEM). Approximately 2000 J2s were used per enzyme or control treatment. These J2s were added to each of four 5 ml tubes and centrifuged at 2500 rpm 4° C. for 5 mins. The supernatant was removed and the J2s were resuspended with 500 μl of 100 μM papain, 100 μM actinidin (active enzyme concentrations) or distilled water with and without 16 mM L-cysteine (the enzyme dilutions were prepared with 16 mM L-cysteine dissolved in distilled water). The nematodes were incubated in the dark at ambient temperature for 4 h before centrifugation as above. The J2s were immediately fixed with 2.5% glutaraldehyde in 0.15M phosphate buffer, pH 7.2 for 1 h at room temperature and were then centrifuged as before prior to washing for 1 h in 0.15M phosphate buffer, pH 7.2 at 4° C. These J2s were then prepared for SEM as described previously by Stepek et al. (2005).

[2] = system: M. incognita J2; test: In vitro assay of M. incognita J2 present in soil mixtures; format: cell-based
Method: The same procedure described above was used to determine the effect of the cysteine proteinases against M. incognita J2 present in soil mixtures. The following soil mixtures were used: fine and coarse sand, peat and fine/coarse sand and loam mix and fine/coarse sand. These soil mixtures were prepared at concentrations of 1:1, 1:3 and 1:6 and autoclaved at […] for 20 min. Peat and loam-mix were obtained from Rothamsted-Research. Soil mixtures were added to 24 well plates (0.5 g) and wetted for 16 hs with either PBS ph 7.2, Tx-100, Milk 5% or cysteine proteinases, in order to wet the soil and block non-specific binding sites present in the soil particles. Then, approximately 100 J2 were added to the wells, followed by cysteine proteinases with 16 mM of L-cysteine to activate the cysteine proteinases or water as control. After 16 hs at room temperature in the dark, individual wells of the 24 well plates were flushed with 1 ml of distilled water to recover the nematodes from the soil mixtures. These were placed in a 24 well plate and the number of dead/live nematodes scored under microscopic observation.
These in vitro experiments were performed in 24 well plates using sterile soil mixtures to diminish the possibility of biological degradation of the enzyme by microorganisms. […] The number of live nematodes was counted before and after enzyme treatment. […]

B1: papain (protein, UniProt P00784 134-345, looked up)
Papain: IPEYVDWRQKGAVTPVKNQGSCGSCWAFSAVVTIEGIIKIRTGNLNEYSEQELLDCDRRSYGCNGGYPWSALQLVAQYGIHYRNTYPYEGVQRYCRSREKGPYAAKTDGVRQVQPYNEGALLYSIANQPVSVVLEAAGKDFQLYRGGIFVGPCGNKVDHAVAAVGYGPNYILIKNSWGTGWGENGYIRIKRGTGNSYGVCGLYTSSFYPVKN
notes: cysteine proteinase from Carica papaya, Merops C01.001, Sigma P3125
- visible effects on the surface of the nematodes ([1]; papain 1.5 μM and 3 μM, light microscopy): no visible effects on the surface
- digestion of the cuticle at the anterior end (light micrographs) ([1]; papain 6.25 μM and 100 μM active enzyme, 3 h): Digestion of the cuticle was evident
- appearance of the internal structures (light micrographs) ([1]; papain 100 μM, 3 h): abnormal granular appearance of the internal structures
- active enzyme concentration causing blistering of the cuticle ([1]; papain, light microscopy x40 and x100, anterior end): above 6.25 μM
- nematode mortality ([2]; papain latex 100 μM, 16 hours, all soil mixtures (sand; 1:3 sand/loam mix; 1:3 sand/peat)): 40-50%
- state of the nematodes after two applications of papain to soil ([2]; soil with 16% organic matter wetted with 250 μM papain without L-cysteine, then 250 μM papain in 16 mM L-cysteine, 16 hs): most nematodes were dead
